From paper PMC9757750 (Science Advances, 2022)

How the values were obtained:
[1] = biological target: Flag-LegA15 used in the GST pulldown of Fig. 2E (Legionella pneumophila Philadelphia, UniProt Q5ZSR1); experiment: pull-down; settings: both partners purified
[2] = biological target: 6×His-LegA15, full-length (Legionella pneumophila Philadelphia, UniProt Q5ZSR1 1-471); experiment: pull-down; settings: both partners purified

B1: GST-p115 (1 to 651), ND (domain or fragment, human, UniProt O60763 1-651, looked up)
chain: MNFLRGVMGGQSAGPQHTEAETIQKLCDRVASSTLLDDRRNAVRALKSLSKKYRLEVGIQAMEHLIHVLQTDRSDSEIIGYALDTLYNIISNEEEEEVEENSTRQSEDLGSQFTEIFIKQQENVTLLLSLLEEFDFHVRWPGVKLLTSLLKQLGPQVQQIILVSPMGVSRLMDLLADSREVIRNDGVLLLQALTRSNGAIQKIVAFENAFERLLDIISEEGNSDGGIVVEDCLILLQNLLKNNNSNQNFFKEGSYIQRMKPWFEVGDENSGWSAQKVTNLHLMLQLVRVLVSPTNPPGATSSCQKAMFQCGLLQQLCTILMATGVPADILTETINTVSEVIRGCQVNQDYFASVNAPSNPPRPAIVVLLMSMVNERQPFVLRCAVLYCFQCFLYKNQKGQGEIVSTLLPSTIDATGNSVSAGQLLCGGLFSTDSLSNWCAAVALAHALQENATQKEQLLRVQLATSIGNPPVSLLQQCTNILSQGSKIQTRVGLLMLLCTWLSNCPIAVTHFLHNSANVPFLTGQIAENLGEEEQLVQGLCALLLGISIYFNDNSLESYMKEKLKQLIEKRIGKENFIEKLGFISKHELYSRASQKPQPNFPSPEYMIFDHEFTKLVKELEGVITKAIYKSSEEDKKEEEVKKTLEQHDNI
notes: also called N-terminal ARM domain; globular head
B1: binds [1]; binds [2].
